Values of other authors in article PMC5590664.

Molecular target: HIV-1 capsid protein (full-length) (Human immunodeficiency virus 1) (UniProt O93182)

Chain of HIV-1 capsid protein (full-length) (O93182 133-363): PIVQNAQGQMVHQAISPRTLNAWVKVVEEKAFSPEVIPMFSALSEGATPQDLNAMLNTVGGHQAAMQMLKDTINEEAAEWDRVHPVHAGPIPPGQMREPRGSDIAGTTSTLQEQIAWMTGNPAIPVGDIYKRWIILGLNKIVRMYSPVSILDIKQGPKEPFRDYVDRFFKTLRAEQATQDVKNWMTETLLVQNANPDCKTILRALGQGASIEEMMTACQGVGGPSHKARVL

Substance: HIV-1 capsid protein (full-length) (from UniProt O93182)
- Kd: 40 µM
